In patent US20030144176:

How the values were obtained:
[1] = molecular target: GST-ERK5KMΔ, a truncated, catalytically inactive form of ERK5 with lysine-83 mutated to methionine, fused to glutathione-S-transferase
[2] = molecular target: glutathione-S-transferase (GST) fused to MEF2C amino acids 204-321

Protein | IP kinase assay: 32P phosphorylation of GST-ERK5KM substrate by immunoprecipitated HA-MEK5 [1] | ERK5 immunoprecipitation (IP) kinase assay: 32P phosphorylation of GST-MEF2C [2]
HA-tagged activated MEK5 (MEK5DD), MEK5β splice isoform with aspartate substitutions of serine-222 and threonine-226 (protein) MEQQVNGQLIEPLQIFPRACKPPGERNIHGLKVNTRAGPSQHTSPVVSDSLPSNSLKKSSAELRKILANGQMNEQDIRYRDTLGHGNGGTVYKAYHVPSGKILAVKVILLDITLELQKQIMSELEILYKCDSSYIIGFYGAFFVENRISICTEFMDGGSLDVYRKIPEHVLGRIAVAVVKGLTYLWSLKILHRDVKPSNMLVNTSGQVKLCDFGVSTQLVNDIAKDYVGTNAYMAPERISGEQYGIHSDVWSLGISFMELALGRFPYPQIQKNQGSLMPLQLLQCIVDEDSPVLPLGEFSEPFVHFITQCMRKQPKERPAPEELMGHPFIVQFNDGNATVVSMWVCRALEERRSQQGPP | AdMEK5DD produced a constitutively active kinase | –
HA-tagged wild-type MEK5 (MEK5WT), MEK5β splice isoform (protein) MEQQVNGQLIEPLQIFPRACKPPGERNIHGLKVNTRAGPSQHTSPVVSDSLPSNSLKKSSAELRKILANGQMNEQDIRYRDTLGHGNGGTVYKAYHVPSGKILAVKVILLDITLELQKQIMSELEILYKCDSSYIIGFYGAFFVENRISICTEFMDGGSLDVYRKIPEHVLGRIAVAVVKGLTYLWSLKILHRDVKPSNMLVNTSGQVKLCDFGVSTQLVNSIAKTYVGTNAYMAPERISGEQYGIHSDVWSLGISFMELALGRFPYPQIQKNQGSLMPLQLLQCIVDEDSPVLPLGEFSEPFVHFITQCMRKQPKERPAPEELMGHPFIVQFNDGNATVVSMWVCRALEERRSQQGPP | Some kinase activity was also observed with the AdMEK5WT virus | –
endogenous ERK5 immunoprecipitated from neonatal rat cardiomyocytes (protein) AEPLKEEDGEDGSGEPPGRVKAEPVHTAASVVAKNLALLKARSFDVTFDVGDEYEIIETIGNGAYGVVSSARRRLTGQQVAIKKIPNAFDVVTNAKRTLRELKILKHFKHDNIIAIKDILRPTVPYGEFRSVYVVLDLMESDLHQIIHSSQPLTLEHVRYFLYQLLRGLKYMHSAQVIHRDLKPSNLLVNENCELKIGDFGMARGLCTSPAEHQYFMTEYVATRWYRAPELMLSLHEYTQAIDLWSVGCIFGEMLARRQLFPGKNYVHQLQLIMMVLGTPSPAVIQAVGAERVRAYIQSLPPRQPVPWETVYPGADRQALSLLGRMLRFEPSARISAAAALRHPFLAKYHDPDDEPDCAPPFDFAFDREALTRERIKEAIVAEIEDFHARREGIRQQIRFQPSLQPVASEPVCPDVEMPSPWAPSGDCAMESPPPALPPCSGPAPDTVDLTLQPAPPASELAPPKREGAISDNTKAALKAALLKSLRSRLRDGPSAPLEAPEPRKPVTAQERQREREEKRRRRQERAKEREKRRQERERKERGAGTLGGPSTDPLAGLVLSDNDRSLLERWTRMARPPVPAPAPAPAPTPKPSSAQPTSPPNGPVSQSTAPLQPAGSIPGPASQPVCPPPGPVPQPAGPVPAPLQTAPSTSLLASQSLVPPSGLPGSGAPEVLPYFPSGPPPPDPGLTPQPSTSESPDVNLVTQQLSKSQVEDPLPPVFSGTPKGSGAGYGVGFDLEEFLNQSFDMGVADGPQDGQADSASLSASLLADWLEGHGMNPADIESLQREIQMDSPMLLSDLPDLQEP | – | Phosphorylation of GST-MEF2C indicated that ERK5 was activated 2-4 fold by hypertrophic agents
